Results reported in the RNAGym collection of RNA variant scans (doi:10.1073/pnas.2313332121).

B1: TPR t1 (parent)
chain: GACCAAUCUGCCCUCAGAGCUCGAGAACAUCUUCGGAUGCAGAGGAGGCAGGCUUCGGUGGCGCGAUAGCGCCAACGUCCUCAACCUCCAAUGCAUCCCACCACAUGAUGAUGCCUGAAGAGCCUUGGUUUUUUG

Variants of: B1
Assay: polymerase ribozyme fitness, log enrichment relative to wild type (log ratio); higher = more active; in vitro selection for triplet polymerase activity
Procedure, shortened: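 Fitness is a logarithmic measure of how a genotype enriched relative to the wild type, with replicate averages weighted by inverse variance. The logarithm uses base 2, and enrichment came from Illumina sequencing of input and output libraries. Those libraries were PCR-built, transcribed mutants of each subunit of a heterodimeric triplet polymerase ribozyme, passed through one triplicate in vitro selection round that included frozen incubation at −7 °C, gel excision of extended constructs and streptavidin-bead capture. Genotypes were kept only if they had ≥10 input reads and ≥1 read per output.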

Variant	polymerase ribozyme fitness (log ratio)
G48C G63A	-0.954
A43G A74U	-2.25
C12A G45U C56U U78A	-1.36
C86A U109A	-5.39
C15G C20U	-2.98
U59C C72U	-0.715
C13G U78C A121C	0.61
U7C C12A C15A C20G G69U C80U C104A C114A G127C	-6.96
G25C U32C G45A C49A A68U G69A A121U	-7.08
C49A C123G	0.461
G10A U81A G110A U129A	-5.01
U9C G47C G71U	-2.13
A16C C56G A121C	-1.27
G10U A27U U109A	-4.99
C12G C15A G39U A41G C49G	-4.44
C8A C70U C89A G120A	-0.458
G23C G110C	-7.42
C4G C13A A24C G63A G71C G113U G128C	-6.72
A41C C82U G120A	0.0706
A5U A18C G113A A118U U131A	-4.6
U14A U59A A91G	-4.05
A41C G48U G61C U92A	-5.63
G47C C98U C124G	-0.238
U7G U133A	0.128

Variant	polymerase ribozyme fitness (log ratio)
C13G C49A	-1.26
C40G G61A G120A	0.253
G17A G39A C79U G110C	-7.24
G45A A74G A95U	-1.3
C20U C56U G63C C94A G120C	-3.97
A50U G61U C94A G110U	-4.5
A83G G120U G122U	-0.467
G48A U78A C98U	-1.75
C40U C53U U78C U92A G93A A111C	-4.45
C15U U133G	-2.11
A41U G42C	-2.5
C56A U112A C114A U116G	-6.59
C64U C80U C88U A111G C114A	-5.18
C8G G63C U92A	-3.28
C12G A18U G45U G63U C88A	-5.09
C80G G117C	-6.43
C8U G39U	0.386
G61C A75U C97U	-0.192
G45C C53U G63C U116G	-3.05
A75G U87A	-0.246
A5U G63A	-0.665
U55G G57A	-0.536
C20U G45C	-3.07
C40U A84C	-0.985

Variant	polymerase ribozyme fitness (log ratio)
A90U C101A	-3.3
A37C G45U G51U C73U	-4.53
C13U G36U U92A	-4.57
A6G G42U C73A C85U U106G G110U	-5.96
A5G U9A A27G C53U U126A U133A	-3.09
U7G G10A A41G C73G C79A C80A C115A	-3.06
G17U G60U U81A	-3.3
A18G C72U U81A A91U U96C G120A G128A	-6.28
C12A G45U A100U	-3.05
G48A A50C U78A A119G G120C	0.118
U106C G113U	-3.01
C3U A105U	-1.94
U32C G71U U129A	-1.48
G39A G71U	-0.815
G36A A41C A43U C88A A105C C123G	-5.88
U125A U131G	0.203
U55A U81A	-0.637
A27U U59A	-3.1
C13G G93A C101G U112C U130A	-4.16
C8U C13U A46C U59A G71U C79G A83G U109G U132A	-7.26
C8U C12G G42U A74U C88A	-1.72
C8A A18G U32A G61A C123A	-2.56
A46C C56U C72U U78A A90G C94U A111C	-0.367
G44A A95C C123G U132A	-1.17

Variant	polymerase ribozyme fitness (log ratio)
C101U G117U	-1.13
C53G G57A G71A C94G C114A	-5.83
C34A G58C G63U	-4.79
U7G C70A A100U	-2.41
C8G C49G C82G A118U	0.164
G42A C62U A83U C85U C124G G128U	-3.77
U54G U87C C115G	-1.72
A111U G120U	-4.5
U92A A121U U125G	-1.83
U9C G113A C114G	-0.741
G69C A121G	0.734
A29U G58A G71C U112A	-1.32
C11A C12U U38A G69C	-2.89
C22G C56A C64U C80G C101G U130A	-5.63
G69U C86U	-0.254
A5C C13U C79A C114A	-2.82
A2C C3G A90G	-3.04
G35C G36A C40A C94U C114U	-6.41
G110U G117U	-4.2
C40A G52A C101A	-3.1
U9A C13U	0.446
C79G	-1.54
C72G U78G	-0.102
C40A C101U	-1.61

Variant	polymerase ribozyme fitness (log ratio)
A2C G69A	-3.57
C3A C8U U59A U87G	-1.65
G19U A37C	-3.64
A43C U129A	-3.98
C49G C56A G71A G93C	-6.41
C3U C4A C53G C62U C88U A90C C123A U130C	-0.74
C34U C56A C82A A83U C97A A121U	-5.4
A29G C53G C62U U106A G117C	-4.22
G25U C64A C98G A111U	-8.01
A119C	-4.38
C64U U78C A83C A100C C101G U129G	-3.92
C28G C114U	-5.68
C15U A43U G48A A100C A111G	-5.15
G39C C79A	-3.06
U54G A108U	-5.9
C8G U109A	-4.06
A6C C88U	-0.228
G19A C86G C101U	-4.15
U21G G120U C123A	-1.07
C8A C12A C34U G39C G61U C85A	-7.04
C20G G42A G45A U54G C79U C123U	-6.38
G44A C73A U87G	-0.428
G48C U55C A95C C98U	-3.28
G71C C114A G127U	-5.17

Variant	polymerase ribozyme fitness (log ratio)
A18U G19A G39U C115G	-3
C13G C62U G120U	-0.935
C13G U133A	-2.17
C76U A91G	-2.17
G44C U92G	-2.61
A2U C13U	-1.36
G44A G51U A68G A121G	-5.63
U33C C79U	-4.51
G10C C13G G35A G61A C114U	-5.47
U7C G48C C70U	-0.869
C15U G45C G117A	-1.11
C11G U78C C102A A118U	-1.3
C34A U129C	-3.48
G25C C123G	-5.25
C13U G51U G52U C82A	-5.14
C62U U87A U92A G120C	-3.58
G17U C40G C89G	-6.24
G47U C72G	-2.79
C31G G52U G77A G117U	-6.19
C53U U81C U96A	-2.89
C97G A111C	-4.02
U116G A121G	-0.679
C70G U78C	-2.66
C49U A50G U78C C115A	-1.98

Variant	polymerase ribozyme fitness (log ratio)
G71A C80U	-2.57
C40U C72A C82G C102A G120A G122U	-3.11
U92C G128C U130A	-3.52
U9A G36U G63U	-1.27
A16U A46C C94U G120C	-0.971
A43U C123A	-1.02
C72G C88A G113U G127C	-5.08
A83C G128C	-2.09
C53A C70A	-1.81
G71U A74U C104A G117A C124U	-5.66
C40U G47C G58A G117A	-4.37
A29C G61C U87A	-4.41
C31U C72G G120C	-5.23
A66C U78C C101G C123A U132A	-3.72
A5G C13U G44U U96G U133A	-2.01
C62A U133G	-2.87
C3A G71C	-3.03
A18U C85A	-4.19
A26G A29C	-3.02
C3U A74U C101U G113A C123G	-1.18
C82G	-0.684
A18C A83C	-1.95
G47U U130G	-2.4
